The values below come from paper PMC12732313, “Phylogenetic and biochemical analysis of the evolution and interdomain modularity of bifunctional L-fucokinase/GDP-fucose pyrophosphorylases” (The Journal of Biological Chemistry, 2025).

One series has as its target T1, TxFKP (Thermophagus xiamenensis, UniProt A0A1I2DJ10).
T1 construct: gene SAMN05444380_11920; codon-optimized gene in pET-28a, E. coli BL21(DE3) with GroEL/GroES/Trigger Factor; Ni-IMAC; GroEL (~60 kDa) contaminant remains
T1 sequence (A0A1I2DJ10 1-954): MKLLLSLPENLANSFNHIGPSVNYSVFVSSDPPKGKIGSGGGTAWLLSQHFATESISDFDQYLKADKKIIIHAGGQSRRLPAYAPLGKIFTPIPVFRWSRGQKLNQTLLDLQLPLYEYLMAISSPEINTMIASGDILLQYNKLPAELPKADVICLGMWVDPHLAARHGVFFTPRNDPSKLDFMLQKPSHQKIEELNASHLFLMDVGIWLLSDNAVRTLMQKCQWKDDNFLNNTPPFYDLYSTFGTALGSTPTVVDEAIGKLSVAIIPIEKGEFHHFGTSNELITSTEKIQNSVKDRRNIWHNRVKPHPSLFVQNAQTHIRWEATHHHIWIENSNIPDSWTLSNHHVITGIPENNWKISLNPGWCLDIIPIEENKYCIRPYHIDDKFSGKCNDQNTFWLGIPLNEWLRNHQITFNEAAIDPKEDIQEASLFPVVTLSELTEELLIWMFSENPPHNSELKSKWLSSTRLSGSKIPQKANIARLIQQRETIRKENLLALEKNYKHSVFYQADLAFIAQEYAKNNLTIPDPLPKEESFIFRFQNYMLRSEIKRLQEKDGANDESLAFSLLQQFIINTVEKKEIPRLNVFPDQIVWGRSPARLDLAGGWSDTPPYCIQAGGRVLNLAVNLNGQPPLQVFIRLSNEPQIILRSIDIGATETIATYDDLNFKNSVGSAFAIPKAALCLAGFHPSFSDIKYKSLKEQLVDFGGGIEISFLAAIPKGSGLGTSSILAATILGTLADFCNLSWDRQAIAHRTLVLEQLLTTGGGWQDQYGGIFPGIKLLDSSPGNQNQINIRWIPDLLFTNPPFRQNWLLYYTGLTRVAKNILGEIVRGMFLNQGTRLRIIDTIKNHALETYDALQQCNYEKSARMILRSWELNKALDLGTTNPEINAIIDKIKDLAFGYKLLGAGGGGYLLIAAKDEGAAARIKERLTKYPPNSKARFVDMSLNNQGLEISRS
Put plainly: thermal shift, SYPRO orange. It is filed as binding. The following applies: 2 mM L-fucose, pH 7.0; Tm2 assigned to FUK domain. The text has this: thermal shift, SYPRO orange on TxFKP

The next series concerns the target T2, BfFKP (Bacteroides fragilis, UniProt Q58T34).
T2 construct: gene fkp; codon-optimized gene in pET vector, E. coli BL21(DE3) with GroEL/GroES/Trigger Factor; Ni-IMAC; no solubility tag
Put plainly: thermal shift, SYPRO orange. As to conditions: 2 mM L-fucose, pH 7.0; lower melting transition; domain not assigned. Format: binding. The text has this: thermal shift, SYPRO orange on BfFKP

The test system of series [1] is C[C@@H]1O[C@H](OP(=O)(O)O)[C@@H](O)[C@H](O)[C@@H]1O. Put plainly: purified protein. As to conditions: pyrophosphorylase activity, 400 μM GTP, 10 mM MgCl2, pH 7.5, 37 °C.
The subject of series [2] is Nc1nc2c(ncn2[C@@H]2O[C@H](COP(=O)(O)OP(=O)(O)OP(=O)(O)O)[C@@H](O)[C@H]2O)c(=O)[nH]1. The series is described as follows: purified protein. The following applies: pyrophosphorylase activity, 250 μM Fuc-1-P, 10 mM MgCl2, pH 7.5, 37 °C.
Substrate in series [3]: Nc1nc2c(ncn2[C@@H]2O[C@H](COP(=O)(O)OP(=O)(O)OP(=O)(O)O)[C@@H](O)[C@H]2O)c(=O)[nH]1
Put plainly: purified protein. As to conditions: pyrophosphorylase activity, 250 μM Fuc-1-P, 10 mM MgCl2, pH 7.5, 37 °C. It is filed as biochemical, Thermophagus xiamenensis.

Substrate in series [4]: C[C@@H]1O[C@H](OP(=O)(O)O)[C@@H](O)[C@H](O)[C@@H]1O
Put plainly: purified protein. Format: biochemical, Thermophagus xiamenensis. The following applies: pyrophosphorylase activity, 100 μM GTP, 10 mM MgCl2, pH 7.5, 37 °C.

Substrate in series [5]: Nc1ncnc2c1ncn2[C@@H]1O[C@H](COP(=O)(O)OP(=O)(O)OP(=O)(O)O)[C@@H](O)[C@H]1O
The series is described as follows: purified protein. Format: biochemical, Thermophagus xiamenensis. The following applies: kinase activity, 1 mM L-fucose, 10 mM MnCl2, pH 7.5, 37 °C.

T2 sequence (Q58T34 whole entry): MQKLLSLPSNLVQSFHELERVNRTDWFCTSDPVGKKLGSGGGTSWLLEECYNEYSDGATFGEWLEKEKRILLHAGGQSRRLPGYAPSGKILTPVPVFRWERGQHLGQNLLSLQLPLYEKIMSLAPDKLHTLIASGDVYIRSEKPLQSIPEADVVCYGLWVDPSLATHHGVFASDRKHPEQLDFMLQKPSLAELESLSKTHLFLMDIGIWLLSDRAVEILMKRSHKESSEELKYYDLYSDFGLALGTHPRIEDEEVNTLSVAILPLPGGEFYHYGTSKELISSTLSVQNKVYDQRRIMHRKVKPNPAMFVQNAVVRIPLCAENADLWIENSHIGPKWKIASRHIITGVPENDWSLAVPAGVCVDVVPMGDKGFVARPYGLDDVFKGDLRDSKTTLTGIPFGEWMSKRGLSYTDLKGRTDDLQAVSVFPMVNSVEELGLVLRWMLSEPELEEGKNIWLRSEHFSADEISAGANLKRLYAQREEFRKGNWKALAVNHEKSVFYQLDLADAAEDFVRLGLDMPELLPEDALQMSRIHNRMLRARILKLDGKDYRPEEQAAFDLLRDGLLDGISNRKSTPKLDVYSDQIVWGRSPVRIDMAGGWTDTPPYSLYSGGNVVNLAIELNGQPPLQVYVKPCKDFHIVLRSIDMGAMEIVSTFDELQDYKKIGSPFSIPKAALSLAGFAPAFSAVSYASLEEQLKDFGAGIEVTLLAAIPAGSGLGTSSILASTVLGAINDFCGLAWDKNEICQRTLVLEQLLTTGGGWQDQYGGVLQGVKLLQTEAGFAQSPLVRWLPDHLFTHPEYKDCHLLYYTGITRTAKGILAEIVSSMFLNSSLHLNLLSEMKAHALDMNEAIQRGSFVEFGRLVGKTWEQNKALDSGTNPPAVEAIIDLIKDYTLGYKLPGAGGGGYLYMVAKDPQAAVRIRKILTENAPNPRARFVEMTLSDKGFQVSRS

As to `C[C@@H]1OC(O)[C@@H](O)[C@H](O)[C@@H]1O` (stereo partly drawn) [L-fucose], on TxFKP, the “Δ Tm2 (°C)” value was 1.8 ± 0.2 °C. On BfFKP, the “ΔTm1 (°C)” value is 2.0 ± 0.0 °C.
By Km is commonly meant the substrate concentration at which the rate is half of its maximum. Broadly, the kcat is the maximal rate divided by the concentration of active sites. What is called kcat/Km is the turnover number divided by the Michaelis constant. As for BfFKP (Bacteroides fragilis), in series [1], the Michaelis constant (Km) was 120 ± 60 µM, the kcat came to 9 ± 3 s⁻¹ and the kcat/Km came to 70000 ± 50000 M⁻¹ s⁻¹. Further, in series [2], the Km was determined as 140 ± 30 µM, the kcat stood at 13 ± 3 s⁻¹ and the kcat/Km came out at 90000 ± 30000 M⁻¹ s⁻¹.

B1: TxFKP (Thermophagus xiamenensis) (protein)
chain: T1 sequence (A0A1I2DJ10 1-954)
notes: codon-optimized gene in pET-28a, E. coli BL21(DE3) with GroEL/GroES/Trigger Factor; Ni-IMAC; GroEL (~60 kDa) contaminant remains
On to B1, for which, in the series “purified protein [3]”, the Km was found to be 27 ± 11 µM, the kcat worked out at 8 ± 1.1 s⁻¹ and the specificity constant (kcat/Km) came out at 300000 ± 130000 M⁻¹ s⁻¹. In “purified protein [4]”, the Michaelis-Menten constant (Km) is 66 ± 20 µM, the kcat turned out to be 4.8 ± 0.6 s⁻¹ and the kcat/Km was found to be 70000 ± 30000 M⁻¹ s⁻¹. In “purified protein [5]”, the Michaelis-Menten constant (Km) came out at 1000 ± 300 µM, the turnover number (kcat) is 0.74 ± 0.07 s⁻¹ and the kcat/Km stood at 700 ± 300 M⁻¹ s⁻¹.
